Reference: patent US20110287036A1, “NOVEL CANCER TARGETING THERAPY USING COMPLEX OF SUBTANCE CAPABLE OF BINDING SPECIFICALLY TO CONSTITUENT FACTOR OF CANCER STROMA AND ANTI-TUMOR COMPOUND” (RIKEN, priority 2008, published 2011)

Tested on: PSN1 or SUIT2
Experiment: In vivo imaging of IRDye800-labeled antibodies in tumor-bearing mice
Parameters: species or system BALB/c nude mouse
Settings: imaged 1, 3, 7 and 14 days after administration
Description: PSN1 or SUIT2 was transplanted to the back of each BALB/c nude mouse (female, 6-week-old); 10 days after the transplantation, each antibody (labeled with IRDye800 (Li-Cor)) was administered from a tail vein of the mouse. 1 day, 3 days, 7 days, and 14 days after the administration, the antibody distribution was analyzed using the in vivo imaging apparatus OV110 (Olympus).
In the figure, CD20 stands for the antihuman CD20 antibody, EpCAM for the antihuman EpCAM antibody, and Col. 4 for the antimouse type IV collagen antibody.

## antihuman CD20 antibody: monoclonal antibody against human B cells, does not react with SUIT2; control
IRDye800-labeled antibody via tail vein 10 days after transplantation
  accumulation in tumor tissue: accumulated selectively in tumor tissue due to an EPR effect
IRDye800-labeled antibody via tail vein
  duration of stay in / disappearance from tumor tissue: disappeared from the tumor tissue earlier than the antimouse type IV collagen antibody
